Format in all cases: binding
One assay deals with T1, NINJA (Arabidopsis thaliana, UniProt Q9SV55).
T1 construct: expressed in transfected cells; host or cells: yeast strain MaV203
T1 sequence (Q9SV55 with tags, fused parts or gaps): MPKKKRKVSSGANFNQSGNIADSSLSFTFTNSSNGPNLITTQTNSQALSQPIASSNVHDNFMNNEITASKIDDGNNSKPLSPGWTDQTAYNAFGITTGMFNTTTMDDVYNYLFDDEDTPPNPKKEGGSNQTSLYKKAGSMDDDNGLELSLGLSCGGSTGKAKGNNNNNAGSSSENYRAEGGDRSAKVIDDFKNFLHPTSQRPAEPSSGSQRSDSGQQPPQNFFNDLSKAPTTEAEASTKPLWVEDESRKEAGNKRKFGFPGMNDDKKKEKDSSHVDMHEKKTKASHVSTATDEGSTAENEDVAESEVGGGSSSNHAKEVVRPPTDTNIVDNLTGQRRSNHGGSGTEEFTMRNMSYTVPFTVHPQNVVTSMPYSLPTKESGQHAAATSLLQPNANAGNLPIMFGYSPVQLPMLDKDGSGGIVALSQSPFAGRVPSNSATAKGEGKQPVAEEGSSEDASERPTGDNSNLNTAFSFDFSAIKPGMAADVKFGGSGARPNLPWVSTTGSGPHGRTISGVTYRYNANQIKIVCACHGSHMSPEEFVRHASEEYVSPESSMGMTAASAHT
Nature of the assay: Yeast two hybrid (Y2H) interaction with NINJA. The note with it: PPD1 as bait protein. The protocol:
Combinations of bait and prey constructs were used to co-transform yeast strain MaV203 (Invitrogen), with selection on synthetic dropout (SD) SD/-Leu/-Trp agar plates. Transformed strains were tested for interactions using 10 μl droplets of 1 in 10 and 1 in 100 dilutions on SD/-Leu/-Trp/-His plates with different concentrations of 3-aminotriazol (3-AT) (Sigma).

In a further assay the target is T2, BZR1 (Arabidopsis thaliana, UniProt Q8S307).
T2 construct: expressed in transfected cells; host or cells: yeast strain MaV203
T2 sequence (Q8S307 with tags, fused parts or gaps): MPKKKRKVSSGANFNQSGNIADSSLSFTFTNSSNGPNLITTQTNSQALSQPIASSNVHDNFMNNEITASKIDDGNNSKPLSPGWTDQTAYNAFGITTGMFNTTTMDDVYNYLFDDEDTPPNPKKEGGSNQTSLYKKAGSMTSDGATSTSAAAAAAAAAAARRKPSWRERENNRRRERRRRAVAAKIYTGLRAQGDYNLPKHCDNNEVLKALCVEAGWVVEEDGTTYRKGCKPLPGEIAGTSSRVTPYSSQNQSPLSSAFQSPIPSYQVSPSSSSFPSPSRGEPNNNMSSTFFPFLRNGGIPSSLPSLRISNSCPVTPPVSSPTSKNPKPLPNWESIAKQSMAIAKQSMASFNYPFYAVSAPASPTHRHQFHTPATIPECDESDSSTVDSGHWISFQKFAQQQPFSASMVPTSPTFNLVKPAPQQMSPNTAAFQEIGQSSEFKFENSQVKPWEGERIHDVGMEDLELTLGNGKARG
Nature of the assay: Yeast two hybrid (Y2H) interaction with BZR1. The note with it: yeast strain MaV203.

The target in the next assay is T3, DELLA (RGA1) (Arabidopsis thaliana, UniProt Q9SLH3).
T3 construct: expressed in transfected cells; host or cells: yeast strain MaV203
T3 sequence (Q9SLH3 with tags, fused parts or gaps): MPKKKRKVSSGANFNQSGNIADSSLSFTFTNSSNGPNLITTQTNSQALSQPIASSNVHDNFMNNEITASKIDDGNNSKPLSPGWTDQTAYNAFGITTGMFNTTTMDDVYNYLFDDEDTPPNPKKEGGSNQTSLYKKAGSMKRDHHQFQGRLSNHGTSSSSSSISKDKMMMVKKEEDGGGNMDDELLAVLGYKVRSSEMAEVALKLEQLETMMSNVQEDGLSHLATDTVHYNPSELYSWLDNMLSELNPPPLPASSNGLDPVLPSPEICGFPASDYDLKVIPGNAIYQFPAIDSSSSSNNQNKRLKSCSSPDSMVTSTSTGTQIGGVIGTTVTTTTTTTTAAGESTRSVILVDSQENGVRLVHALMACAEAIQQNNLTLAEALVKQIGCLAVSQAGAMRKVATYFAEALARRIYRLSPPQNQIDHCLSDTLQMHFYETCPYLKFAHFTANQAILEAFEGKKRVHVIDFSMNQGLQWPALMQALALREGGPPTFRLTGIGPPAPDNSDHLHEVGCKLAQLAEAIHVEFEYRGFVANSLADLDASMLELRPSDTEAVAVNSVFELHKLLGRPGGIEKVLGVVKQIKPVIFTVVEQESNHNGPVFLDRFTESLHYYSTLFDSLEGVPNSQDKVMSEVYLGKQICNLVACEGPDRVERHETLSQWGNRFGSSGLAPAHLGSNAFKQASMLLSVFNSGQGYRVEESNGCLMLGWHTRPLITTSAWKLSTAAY
The experiment in a line: Yeast two-hybrid (Y2H) interaction with DELLA (RGA1). The following applies: PPD1-DBD as bait, selective medium with 15 mM 3AT. From the text: The ProQuest two-hybrid system (Invitrogen) was used to analyse interactions between PPD1, and RGA1. Full length coding sequences of PPD1, together with truncation or deletion derivatives of PPD1 (PPD1Δppd, PPD1Δtify, and PPD1Δjas*) (FIG. 4), were Gateway sub-cloned into pDEST32 (N-terminal GAL4DBD) or pDEST22 (N-terminal GAL4AD). When translated these generated the following peptide sequences od SEQ ID NO: 58, 68, 69, 70, 71, 72, which are PPD1-DBD, RGA1, RGA1-AD, PPD1-ppd-DBD, PPD1-tify-DBD, PP1-jas*-DBD respectively.
Combinations of bait and prey constructs were used to co-transform yeast strain MaV203 (Invitrogen), with selection on synthetic dropout (SD) SD/-Leu/-Trp agar plates. Transformed strains were tested for interactions using 10 μl droplets of 1 in 10 and 1 in 100 dilutions on SD/-Leu/-Trp/-His plates with different concentrations of 3-aminotriazol (3-AT) (Sigma). The PPD1-RGA1 interaction was tested with PPD1-DBD used as bait. Transformed yeast was spotted as a ten-fold dilution on control medium (−2) or selective medium (−3) with 15 mM 3AT. Controls were empty vectors, DBD, GAL4 DNA binding domain, AD, GAL4 activation domain (FIG. 4).

B1: Arabidopsis PPD: Arabidopsis thaliana PEAPOD 1 protein, At4g14713, SEQ ID NO: 1 (protein, listed as Arabidopsis thaliana)
chain: MDVGVSPAKSILAKPLKLLTEEDISQLTREDCRKFLKDKGMRRPSWNKSQAIQQVLSLKALYEPGDDSGAGIFRKILVSQPVNPPRVTTTLIEPSNELEACGRVSYPEDNGACHRMDSPRSAEFSGGSGHFVSEKDGHKTTISPRSPAETSELVGQMTIFYSGKVNVYDGIPPEKARSIMHFAANPIDLPENGIFASSRMISKLISKEKMMELPQKGLEKANSSRDSGMEGQANRKVSLQRYREKRKDRKFSKAKKCPGVASSSLEMFLNCQPRMKAAYSQNLGCTGSPLHSQSPESQTKSPNLSVDLNSEGI
For the molecule B1, in the assay with NINJA, the “Y2H interaction with NINJA” value is recorded as “direct interactor”. Further, in the assay with BZR1, the “Y2H direct interaction with BZR1” value is on record as “no direct interaction”. Moreover, the “Y2H binding to DELLA (RGA1)” value with DELLA (RGA1) is recorded as “can directly bind”.
